According to patent publication US20240092920A1 (KEYMED BIOSCIENCES, published 2024):

Columns and labels:
[1] = target: T1, recombinant protein of human IL-4Rα extracellular region (human, UniProt P24394 26-232); assay: ELISA on coated human hIL-4Rα (1 ug/ml), HRP-linked secondary antibody, OD450
T1 construct: range 26-232; Made in HEK293-6E cells, purified on nickel chelate; Used biotin-labeled on SA probes in the Fortebio assays and unlabeled as ELISA coat; also called hIL-4Rα; IL-4Rα recombinant protein
T1 sequence: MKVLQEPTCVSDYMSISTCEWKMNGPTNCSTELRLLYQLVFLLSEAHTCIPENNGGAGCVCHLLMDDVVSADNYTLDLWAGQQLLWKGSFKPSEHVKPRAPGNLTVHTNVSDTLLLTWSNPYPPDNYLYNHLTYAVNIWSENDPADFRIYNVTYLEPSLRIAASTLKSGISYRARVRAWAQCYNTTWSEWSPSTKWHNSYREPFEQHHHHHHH
Method: (§1) 1 ug/ml human hIL-4Rα, 10 ug/ml cynomolgus cynoIL-4Rα, 1 ug/ml mouse mIL-4Rα (Sino Biological, Cat: 80198-R08H) and 1 ug/ml rat-derived ratIL-4Rα (Sino Biological, Cat: 51180-MO8H) are diluted in 0.05 M carbonate coating buffer (pH 9.5) at 4° C. overnight. The solution in the wells is discarded the next day and the wells are washed 3 times with PBS washing buffer. Then PBS solution containing 2% BSA is added for blocking for 2 hours. After washing 3 times with PBS washing buffer, 100 ul of humanized candidate antibodies at different diluted concentrations is added, incubated for 1 h at room temperature, and then washed 3 times with PBS washing buffer; the HRP cross-linked antibody (Jackson Immuno Research) is diluted at 1:10000 with PBS washing buffer and incubated for 1 hour at room temperature. After washing 3 times with PBS washing buffer, 100 ul of TMB substrate solution is added to develop color, and after reaction at room temperature for 10 minutes; the reaction is stopped by the addition of 50 ul of 0.5 M concentrated sulfuric acid solution and the absorbance at 450 nm is read.

[2] = target: T2, hIL-4Rα, full length, on stably transfected HEK293 cells (human, UniProt P24394 26-825); assay: flow cytometry on 293-hIL-4Rα stably transfected cells, anti-human IgG Fab'2-AF647
T2 construct: whole, on cells; also called HEK293-hIL-4Rα
T2 sequence (looked up): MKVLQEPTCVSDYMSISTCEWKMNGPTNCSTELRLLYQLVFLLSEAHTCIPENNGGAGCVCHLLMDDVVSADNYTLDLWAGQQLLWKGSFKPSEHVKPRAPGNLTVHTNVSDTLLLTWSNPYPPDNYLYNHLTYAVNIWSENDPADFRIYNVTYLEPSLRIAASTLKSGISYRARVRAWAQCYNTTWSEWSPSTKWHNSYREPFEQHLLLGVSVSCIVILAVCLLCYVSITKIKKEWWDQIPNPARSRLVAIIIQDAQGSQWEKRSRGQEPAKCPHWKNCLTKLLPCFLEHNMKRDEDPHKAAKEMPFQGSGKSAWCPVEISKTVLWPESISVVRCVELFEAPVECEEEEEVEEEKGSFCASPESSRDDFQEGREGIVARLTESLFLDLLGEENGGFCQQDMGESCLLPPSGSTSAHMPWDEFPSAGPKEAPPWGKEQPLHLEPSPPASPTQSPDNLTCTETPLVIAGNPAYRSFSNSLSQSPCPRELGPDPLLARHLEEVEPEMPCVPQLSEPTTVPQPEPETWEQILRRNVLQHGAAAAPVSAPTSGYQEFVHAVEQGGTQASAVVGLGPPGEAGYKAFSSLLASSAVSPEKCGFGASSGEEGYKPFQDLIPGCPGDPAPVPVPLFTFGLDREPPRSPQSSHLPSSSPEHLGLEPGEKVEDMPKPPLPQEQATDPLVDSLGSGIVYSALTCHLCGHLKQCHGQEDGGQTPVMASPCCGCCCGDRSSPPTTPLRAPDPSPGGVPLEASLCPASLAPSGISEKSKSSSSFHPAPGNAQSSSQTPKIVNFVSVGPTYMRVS
Method: Every 1*10⁶ cells corresponds to 100 μl of 3% BSA/PBS solution, and the solution is blocked at 4° C. for 20 minutes. The prepared cells are added to a 96-well U-type plate at a volume of 100 μl/well, and centrifuged at 1100 rpm for 3 minutes, and the supernatant is discarded; and the primary antibody solution is added and incubated for 1 hour on ice. […] After incubation with the primary antibody solution, additional 0.5% BSA/PBS is added to a volume of […], centrifuged at 1100 rpm for 3 minutes, and the supernatant is discarded. 150 μl of 0.5% BSA/PBS is further added, centrifuged at 1100 rpm for 3 minutes, and the supernatant is discarded; before adding a secondary antibody anti-human IgG, Fab′2-AF647, same is diluted at 1:300 with 1% BSA/PBS. 40 μl of the secondary antibody solution is added to each well and incubated on ice for 45 minutes. After incubation with the secondary antibody solution, additional 0.5% BSA/PBS is added to a volume of 150 μl, centrifuged at 1100 rpm for 3 minutes, and the supernatant is discarded; 150 μl of 0.5% BSA/PBS is further added, centrifuged at 1100 rpm for 3 minutes, and the supernatant is discarded; 20-100 μl of PBS is added to resuspend the cells to 1*10⁶ cells per ml, and the obtained suspension is loaded onto a flow cytometer (I-Que screener). After opening the instrument and operating system according to the correct process, and setting the correct parameters, the cells are loaded to the test plate, and the fluorescent signal is detected, analysis is performed using Graph Pad Prism 5 software.

[3] = target: T3, recombinant protein of cynomolgus IL-4Rα extracellular region (cynomolgus monkey); assay: ELISA on coated cynomolgus cynoIL-4Rα (10 ug/ml), HRP-linked secondary antibody, OD450
T3 construct: also called cynoIL-4Rα; cynomolgus monkey IL-4Rα
T3 chain: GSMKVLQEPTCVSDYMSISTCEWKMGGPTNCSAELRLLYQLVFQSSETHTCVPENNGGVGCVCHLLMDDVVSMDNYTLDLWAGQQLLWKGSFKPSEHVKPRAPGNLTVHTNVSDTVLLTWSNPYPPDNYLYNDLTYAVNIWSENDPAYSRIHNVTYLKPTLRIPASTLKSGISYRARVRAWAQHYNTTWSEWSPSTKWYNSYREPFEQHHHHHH
Method: as §1

[4] = target: T2, hIL-4Rα, full length, on stably …; assay: flow cytometry blocking assay on 293-hIL-4Rα stably transfected cells; blocked ligand: biotin-labeled IL-4 at 0.15 ug/ml, SA-PE
Method: Every 1*10⁶ cells corresponds to 100 μl of 3% BSA/PBS solution, and the solution is blocked at 4° C. for 20 minutes. The prepared cells are added to a 96-well U-type plate at a volume of 100 μl/well, and centrifuged at 1100 rpm for 3 minutes, and the supernatant is discarded; and the primary antibody solution is added and incubated for 1 hour on ice. Purified candidate antibodies are made into 5 concentration series with a starting concentration of 100 nM, and diluted according to a series of 1:5. After incubation with the primary antibody solution, additional 0.5% BSA/PBS is added to a volume of 150 μl, centrifuged at 1100 rpm for 3 minutes, and the supernatant is discarded. 150 μl of 0.5% BSA/PBS is further added, centrifuged at 1100 rpm for 3 minutes, and the supernatant is discarded; biotin-labeled IL-4 at a final concentration of 0.15 ug/ml is added and incubated on ice for 45 minutes. The secondary antibody SA-PE is diluted at 1:300 with 1% BSA/PBS; 40 μl of the secondary antibody solution is added to each well and incubated on ice for 45 minutes. After incubation with the secondary antibody solution, additional 0.5% BSA/PBS is added to a volume of 150 μl, centrifuged at 1100 rpm for 3 minutes, and the supernatant is discarded; 150 μl of 0.5% BSA/PBS is further added, centrifuged at 1100 rpm for 3 minutes, and the supernatant is discarded. 20-100 μl of PBS is added to resuspend the cells to 1*10⁶ cells per ml, and the obtained suspension is loaded onto a flow cytometer (I-Que screener). After opening the instrument and operating system according to the correct process, and setting the correct parameters, the cells are loaded to the test plate, and the fluorescent signal is detected, analysis is performed using Graph Pad Prism 5 software.

Row | Binder | EC50 [1] | EC50 (read off the curve) [2] | EC50 [3] | IC50 (read off the curve) [4]
1 | 1021/1013 (antibody, IgG1, V domains shown, Humanized candidate antibody; also called 1021/1013-IgG; VH1021 with VL1013) VH: EVQLVESGGGLVKPGGSLRLSCAASGFTFSRYAMSWVRQAPGKGLEWVSTISSGGSYTNYADSVKGRFTISRDNVKNTLYLQMNSLRAEDTAVYYCARATARATEFAYWGQGTLVTVSS VL: DIQMTQSPSSLSASVGDRVTITCQASQDISNYLNWYQQKPGKAPKLLIYYTSRLHSGVPSRFSGSGSGTDYTLTISSLQPEDFATYFCQQGNTLPLTFGGGTKVEIK | 64 pM | ~30 pM | 1400 pM | –
2 | 1026/1011 (antibody, V domains shown, Humanized candidate antibody; same remark on Fab/IgG wording as for 1021/1013; also called 1026/1011-IgG; VH1026 with VL1011) VH: QVQLVQSGAEVKKPGASVKMSCKASVYTFTGYNMHWVRQAPGQGLEWIGGLHPGNGDTSYNQKFKDRATLTADRSSNTAYMELSSLRSEDTAVYYCALTTAGRAWFAYWGQGTLVTVSS VL: DIQMTQSPSSLSASVGDRVTITCQASQDISNYLNWYQQKPGKAPKLLIYYTSRLHSGVPSRFSGSGSGTDYTFTISSLQPEDIATYFCQQGNTLPWTFGGGTKVEIK | 60 pM | ~70 pM | 89200 pM | ~200 pM

The remaining binders from weak to strong by EC50 [1], led by results:

Row | EC50 [1] | EC50 (read off the curve) [2] | EC50 [3] | IC50 (read off the curve) [4] | Binder
3 | 67 pM | – | 1160 pM | ~90 pM | 1022/1013 (antibody, V domains shown, Humanized candidate antibody; same remark on Fab/IgG wording as for 1021/1013; also called 1022/1013-IgG; VH1022 with VL1013) VH: EVQLLESGGGLVQPGGSLRLSCAASGFTFSRYAMSWVRQAPGKGLEWVSTISSGGSYTNYADSVKGRFTISRDNVKNTLYLQMNSLRAEDTAVYYCARATARATEFAYWGQGTLVTVSS VL: DIQMTQSPSSLSASVGDRVTITCQASQDISNYLNWYQQKPGKAPKLLIYYTSRLHSGVPSRFSGSGSGTDYTLTISSLQPEDFATYFCQQGNTLPLTFGGGTKVEIK
4 | 17 pM | ~60 pM | 13200 pM | ~200 pM | 1026/1012 (antibody, V domains shown, Humanized candidate antibody; same remark on Fab/IgG wording as for 1021/1013; also called 1026/1012-IgG; VH1026 with VL1012) VH: QVQLVQSGAEVKKPGASVKMSCKASVYTFTGYNMHWVRQAPGQGLEWIGGLHPGNGDTSYNQKFKDRATLTADRSSNTAYMELSSLRSEDTAVYYCALTTAGRAWFAYWGQGTLVTVSS VL: DIQMTQSPSSLSASVGDRVTITCRASQDISNYLNWYQQKPGKAPKLLIYYTSRLHSGVPSRFSGSGSGTDYTLTISSLQPEDFATYFCQQGNTLPWTFGGGTKVEIK
